Experimental data taken from patent publication US20250145973, “CONDITIONED DNA MODIFYING ENZYME COMPRISING HETEROLOGOUS DNA BINDING DOMAIN” (Technische Universität Dresden Körperschaft des …, published 2025).

Biological target: Brec1-Zif268 (aa278) Rmut (synthetic)
Assay: cell_activity; 100 ug/ml L-arabinose, E. coli
Conditions: tags: G-to-R in right linker

Chain of Brec1-Zif268 (aa278) Rmut (synthetic) (chain, as listed by the source): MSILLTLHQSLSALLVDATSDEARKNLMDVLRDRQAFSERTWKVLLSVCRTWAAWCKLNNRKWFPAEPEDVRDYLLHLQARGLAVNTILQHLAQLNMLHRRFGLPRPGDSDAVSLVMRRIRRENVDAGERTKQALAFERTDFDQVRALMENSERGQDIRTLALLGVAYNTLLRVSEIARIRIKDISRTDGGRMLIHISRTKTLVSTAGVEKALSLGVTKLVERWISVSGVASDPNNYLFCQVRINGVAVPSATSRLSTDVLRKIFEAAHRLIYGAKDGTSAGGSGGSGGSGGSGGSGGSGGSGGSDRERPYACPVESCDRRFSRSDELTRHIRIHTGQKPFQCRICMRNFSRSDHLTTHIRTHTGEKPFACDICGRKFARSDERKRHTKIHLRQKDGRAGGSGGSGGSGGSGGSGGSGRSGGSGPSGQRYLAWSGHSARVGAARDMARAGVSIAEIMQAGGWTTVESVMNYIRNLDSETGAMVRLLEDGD

B1: loxBTR-5-zif (A) (dsDNA)
DNA 1: AGCGTGGGCGTACTGAACCCACTGCTTAAGCCTCAATAAAGCTTGCCTTCAGTACGCCCACGCT
DNA 2: AGCGTGGGCGTACTGAAGGCAAGCTTTATTGAGGCTTAAGCAGTGGGTTCAGTACGCCCACGCT
With B1 the binding signal was 2.5 fold vs Brec1-Zif268.
